“And” between values parts separate entries of the source, which are not always exact repeats. Equal entries are not always repeated.
Key:
Assay type in all cases: biochemical
[1] = system: panel of off-target peptides; test: Steady-state kinetics across the panel of off-target peptides
Protocol: For detailed kinetic characterisation of peptide cleavage by NEP, a similar assay to that above was used with modifications based on a published method. Peptides were synthesised by Bachem using 9-fluorenylmethyloxycarbonyl solid-phase peptide synthesis and were labelled with a N-terminal 5(6)FAM via a ε-aminocaproic acid linker and a C-terminal biotin via a lysine linker (Table S1). Purified peptides were supplied as trifluoroacetate salts with a purity ≥95%. The assay was performed in a 96-well microtitre plate and contained 50 mM HEPES (pH 7.4), 100 mM NaCl, 0.05% (w/v) BSA (Buffer A), 1–200 µM peptide substrate and 1–500 nM NEP protein. […] The fluorescence polarisation of the resulting solution was measured on a Victor plate reader and the amount of substrate cleaved was determined with reference to substrate-only controls with and without avidin. […]
Kinetic parameters for cleavage of endothelin-1 by NEP were determined using a stopped assay in which the amount of substrate cleaved was measured using reversed-phase HPLC (RP-HPLC). […] RP-HPLC spectra were recorded using an Agilent 1260 Infinity system. […] Signal intensity for intact endothelin-1 was monitored at 210 nm and relative peak area was determined by manual integration of the baseline. […]
Kinetic parameters for cleavage of a panel of peptides by wild-type NEP and NEPv were determined (Figure 3 and Table 2). […]

ANP = test: Steady-state kinetics of peptide cleavage, fluorescence polarisation; conditions: substrate ANP
Protocol: (§1) For detailed kinetic characterisation of peptide cleavage by NEP, a similar assay to that above was used with modifications based on a published method. Peptides were synthesised by Bachem using 9-fluorenylmethyloxycarbonyl solid-phase peptide synthesis and were labelled with a N-terminal 5(6)FAM via a ε-aminocaproic acid linker and a C-terminal biotin via a lysine linker (Table S1). Purified peptides were supplied as trifluoroacetate salts with a purity ≥95%. The assay was performed in a 96-well microtitre plate and contained 50 mM HEPES (pH 7.4), 100 mM NaCl, 0.05% (w/v) BSA (Buffer A), 1–200 µM peptide substrate and 1–500 nM NEP protein. Reactions were incubated at 37°C before being stopped at various time points between 2 and 360 min by transferring 5 µL aliquots to 245 µL Buffer A containing 2 mM 1,10-phenanethroline (Sigma) and 2 µM avidin (Invitrogen). For peptide substrates containing disulphide bonds, 1 mM tris(2-carboxyethyl)phosphine (Thermo Scientific) was added to the stop solution. The fluorescence polarisation of the resulting solution was measured on a Victor plate reader and the amount of substrate cleaved was determined with reference to substrate-only controls with and without avidin. Initial rates were obtained by linear regression of the linear regions of time courses. Enzyme velocity was plotted as a function of substrate concentration and the Michaelis-Menten equation was used to fit the data, giving the parameters kcat and KM.

Substance P = test: as above; conditions: substrate Substance P
Protocol: as §1

γ-endorphin = test: as above; conditions: substrate γ-endorphin
Protocol: as §1

Somatostatin 14 = test: as above; conditions: substrate Somatostatin 14
Protocol: as §1

GRP = test: as above; conditions: substrate GRP
Protocol: as §1

Nociceptin = test: as above; conditions: substrate Nociceptin
Protocol: as §1

Glucagon = test: as above; conditions: substrate Glucagon
Protocol: as §1

Neurotensin = test: as above
Protocol: as §1

GLP-1 = test: as above; conditions: substrate GLP-1
Protocol: as §1

Arg-vasopressin = test: as above; conditions: substrate Arg-vasopressin
Protocol: as §1

Neurokinin A = test: as above; conditions: substrate Neurokinin A
Protocol: as §1

Angiotensin = test: as above
Protocol: as §1

Bradykinin = test: as above
Protocol: as §1

Neurokinin B = test: as above; conditions: substrate Neurokinin B
Protocol: as §1

α-endorphin = test: as above; conditions: substrate α-endorphin
Protocol: as §1

Aβ1–40 = test: as above; conditions: for increase in kcat/KM (catalytic efficiency) on Aβ1–40 over wild-type NEP: relative to wild-type NEP
Protocol: as §1

Somatostatin 28 = test: as above; conditions: substrate Somatostatin 28
Protocol: as §1

[2] = ratio of wild-type NEP kcat/KM to that of the mutant
[3] = substrate Neurotensin, 37°C, pH 7.4
[4] = substrate Angiotensin, 37°C, pH 7.4
[5] = substrate Bradykinin, 37°C, pH 7.4
[6] = substrate Aβ 1–40, 37°C, pH 7.4

B1: NEPv: lead variant at round 2, human NEP ectodomain with the two mutations G399V and G714K (protein, UniProt P08473 52-750, looked up, variant G399V G714K)
extracellular domain: YDDGICKSSDCIKSAARLIQNMDATTEPCTDFFKYACGGWLKRNVIPETSSRYGNFDILRDELEVVLKDVLQEPKTEDIVAVQKAKALYRSCINESAIDSRGGEPLLKLLPDIYGWPVATENWEQKYGASWTAEKAIAQLNSKYGKKVLINLFVGTDDKNSVNHVIHIDQPRLGLPSRDYYECTGIYKEACTAYVDFMISVARLIRQEERLPIDENQLALEMNKVMELEKEIANATAKPEDRNDPMLLYNKMTLAQIQNNFSLEINGKPFSWLNFTNEIMSTVNISITNEEDVVVYAPEYLTKLKPILTKYSARDLQNLMSWRFIMDLVSSLSRTYKESRNAFRKALYVTTSETATWRRCANYVNGNMENAVGRLYVEAAFAGESKHVVEDLIAQIREVFIQTLDDLTWMDAETKKRAEEKALAIKERIGYPDDIVSNDNKLNNEYLELNYKEDEYFENIIQNLKFSQSKQLKKLREKVDKDEWISGAAVVNAFYSSGRNQIVFPAGILQPPFFSAQQSNSLNYGGIGMVIGHEITHGFDDNGRNFNKDGDLVDWWTQQSASNFKEQSQCMVYQYGNFSWDLAGGQHLNGINTLGENIADNGGLGQAYRAYQNYIKKNGEEKLLPGLDLNHKQLFFLNFAQVWCGTYRPEYAVNSIKTDVHSPKNFRIIGTLQNSAEFSEAFHCRKNSYMNPEKKCRVW
modifications: extracellular domain
reduction in activity on other peptides ([1]; other (off-target) peptides, relative to wild-type): ≤ 3,200 fold
average specificity switch (ratio of the fold change in kcat/KM on Aβ1–40 to that on other peptides) ([1]; panel of 16 peptides): 5,300 fold
Km (ANP; 37°C, pH 7.4): 33 ± 6 µM
kcat (ANP; 37°C, pH 7.4): 0.56 ± 0.05 s⁻¹
Fold change in kcat/KM (ANP; [2]): 53
Km (Substance P; 37°C, pH 7.4): 92 ± 10 µM
kcat (Substance P; 37°C, pH 7.4): 12 ± 0.9 s⁻¹
Fold change in kcat/KM (Substance P; [2]): 8.7
Km (γ-endorphin; 37°C, pH 7.4): 4.4 ± 0.6 µM
kcat (γ-endorphin; 37°C, pH 7.4): 0.16 ± 0.006 s⁻¹
Fold change in kcat/KM (γ-endorphin; [2]): 10
Km (Somatostatin 14; 37°C, pH 7.4): 32 ± 3 µM
kcat (Somatostatin 14; 37°C, pH 7.4): 9.1 ± 0.4 s⁻¹
Fold change in kcat/KM (Somatostatin 14; [2]): 15
reduction in kcat relative to wild-type NEP (GRP): 67 fold
Km (GRP; 37°C, pH 7.4): 120 ± 20 µM
kcat (GRP; 37°C, pH 7.4): 0.39 ± 0.05 s⁻¹
Fold change in kcat/KM (GRP; [2]): 52
Km (Nociceptin; 37°C, pH 7.4): 63 ± 7 µM
kcat (Nociceptin; 37°C, pH 7.4): 14 ± 0.9 s⁻¹
Fold change in kcat/KM (Nociceptin; [2]): 2.6
Km (Glucagon; 37°C, pH 7.4): 30 ± 6 µM
kcat (Glucagon; 37°C, pH 7.4): 1.2 ± 0.1 s⁻¹
Fold change in kcat/KM (Glucagon; [2]): 4.2
Km (Neurotensin; [3]): 16 ± 3 µM
kcat (Neurotensin; [3]): 0.039 ± 0.002 s⁻¹
Fold change in kcat/KM (Neurotensin; substrate Neurotensin, ratio of wild-type NEP kcat/KM to that of the mutant): 320
reduction in kcat relative to wild-type NEP (Neurotensin; substrate neurotensin): 340 fold
Km (GLP-1; 37°C, pH 7.4): 23 ± 4 µM
kcat (GLP-1; 37°C, pH 7.4): 0.89 ± 0.07 s⁻¹
Fold change in kcat/KM (GLP-1; [2]): 3.6
Km (Arg-vasopressin; 37°C, pH 7.4): 22 ± 3 µM
kcat (Arg-vasopressin; 37°C, pH 7.4): 0.017 ± 0.001 s⁻¹
Fold change in kcat/KM (Arg-vasopressin; [2]): 510
Km (Neurokinin A; 37°C, pH 7.4): 34 ± 7 µM
kcat (Neurokinin A; 37°C, pH 7.4): 1.1 ± 0.1 s⁻¹
Fold change in kcat/KM (Neurokinin A; [2]): 52
Km (Angiotensin; [4]): 13 ± 2 µM
kcat (Angiotensin; [4]): 0.14 ± 0.007 s⁻¹
Fold change in kcat/KM (Angiotensin; substrate Angiotensin, ratio of wild-type NEP kcat/KM to that of the mutant): 87
reduction in kcat relative to wild-type NEP (Angiotensin; substrate angiotensin): 60 fold
specificity switch in favor of cleavage of Aβ (Bradykinin; Aβ1–40 versus bradykinin): 6.4×10^4
Km (Bradykinin; [5]): 37 ± 10 µM
kcat (Bradykinin; [5]): 0.0055 ± 0.001 s⁻¹
Km (Neurokinin B; 37°C, pH 7.4): 22 ± 3 µM
kcat (Neurokinin B; 37°C, pH 7.4): 0.42 ± 0.03 s⁻¹
Fold change in kcat/KM (Neurokinin B; [2]): 48
Km (α-endorphin; 37°C, pH 7.4): 6.5 ± 1 µM
kcat (α-endorphin; 37°C, pH 7.4): 0.089 ± 0.003 s⁻¹
Fold change in kcat/KM (α-endorphin; [2]): 26
increase in kcat relative to wild-type NEP (Aβ1–40; substrate Aβ1–40): ~2 fold
Km (Aβ1–40; [6]): 14 ± 1 µM
kcat (Aβ1–40; [6]): 2.1 ± 0.1 s⁻¹
Fold change in kcat/KM (Aβ1–40; substrate Aβ 1–40, ratio of wild-type NEP kcat/KM to that of the mutant): 0.055
increase in kcat/KM (catalytic efficiency) on Aβ1–40 over wild-type NEP (Aβ1–40; substrate Aβ1–40): 18.5 fold and 20 fold
increase in kcat/KM (catalytic efficiency) on Aβ1–40 over wild-type NEP (Aβ1–40; substrate Aβ1–40, listed as Neprilysin variant G399V/G714K): approximately 20 fold
Km (Somatostatin 28; 37°C, pH 7.4): 47 ± 20 µM
kcat (Somatostatin 28; 37°C, pH 7.4): 0.086 ± 0.02 s⁻¹
Fold change in kcat/KM (Somatostatin 28; [2]): 87

Source: paper PMC4121237, “Engineering Neprilysin Activity and Specificity to Create a Novel Therapeutic for Alzheimer’s Disease” (PLoS ONE, 2014)
